The record followed here is article PMC7059301.

The assay addresses Aspergillus niger α-xylosidase AxlA (Aspergillus niger). The assay can be described thus: crystal structure.

One may read the stoichiometry N as the number of molecules, sites or subunits per partner or assembly. On to “Aspergillus niger α-xylosidase AxlA (enzyme)”, for which the stoichiometry N came out at 4.
